Assays:
[1] = biological target: T1, HA of H3N2 A/HK/1/68 (influenza A virus, UniProt Q91MA7 17-530); assay: BLI steady state
[2] = biological target: HA of H7N7 A/Common Teal/MPF139/07 (influenza A virus); assay: cell-based or functional assay
[3] = biological target: HA of H7N9 A/Anhui/1/13 (influenza A virus); assay: cell-based or functional assay
[4] = biological target: HA of H7N9 A/Shanghai/1/13 (influenza A virus); assay: cell-based or functional assay
[5] = biological target: HA of H7N9 A/Shanghai/2/13 (influenza A virus); assay: cell-based or functional assay
[6] = biological target: HA of H10N8 A/Jiangxi/346/2013 (influenza A virus); assay: cell-based or functional assay
[7] = biological target: HA of H10N3 A/Common Teal/MPH11/08 (influenza A virus); assay: cell-based or functional assay
[8] = biological target: HA of H10N9 A/Northern Shoveler/MPE2531/08 (influenza A virus); assay: cell-based or functional assay
[9] = biological target: HA of H1N1 A/Puerto Rico/8/34-MA (influenza A virus); assay: cell-based or functional assay
[10] = biological target: HA of H5N1 A/PR8 H5N1 HK97 (influenza A virus); assay: cell-based or functional assay
[11] = biological target: HA of H3N2 A/HK/1/68-MA (influenza A virus); assay: cell-based or functional assay
[12] = biological target: T1, HA of H3N2 A/HK/1/68; assay: cell-based or functional assay
[13] = biological target: T2, HA of H7N7 A/Netherlands/219/2003 (influenza A virus, UniProt P36346 19-563); assay: cell-based or functional assay
[14] = biological target: HA of H2N2 A/Guiyang/1/57 (influenza A virus); assay: cell-based or functional assay
[15] = biological target: HA of H3N2 A/Panama/2007/99 (influenza A virus); assay: cell-based or functional assay
[16] = biological target: HA of H4 A/WF/HK/MPA892/06 (influenza A virus); assay: cell-based or functional assay
[17] = biological target: HA of H7N7 A/PR8 H7N7-NY (influenza A virus); assay: cell-based or functional assay
[18] = biological target: HA of H10N7 A/Chick/Germany/N/49 (influenza A virus); assay: cell-based or functional assay
[19] = biological target: HA of H1N1 A/Mississippi/03/01 274H (influenza A virus); assay: cell-based or functional assay
[20] = biological target: HA of H1N1 A/Solomon Islands/3/2006 (IVR 145) (influenza A virus); assay: cell-based or functional assay
[21] = biological target: HA of H1N1 A/WSN/33 (influenza A virus, UniProt P03454 18-565); assay: cell-based or functional assay
[22] = biological target: HA of H1N1 A/HK/54/98 (influenza A virus); assay: cell-based or functional assay
[23] = biological target: HA of H1N1 A/Christchurch/16/10 (influenza A virus); assay: cell-based or functional assay
[24] = biological target: HA of H1N2 A/Env/HK/MPU3156/05 (influenza A virus); assay: cell-based or functional assay
[25] = biological target: HA of H5N1 A/Indonesia/5/05 (influenza A virus); assay: cell-based or functional assay
[26] = biological target: HA of H5N2 A/Eurasian Wigeon/MPF461/07 (influenza A virus); assay: cell-based or functional assay
[27] = biological target: HA of H5N2 A/Eurasian Wigeon/HK/MPF333/07 (influenza A virus); assay: cell-based or functional assay
[28] = biological target: HA of H2N2 A/AnnArbor/23/57 (influenza A virus); assay: cell-based or functional assay
[29] = biological target: HA of H2N2 A/Env/HK/MPU3156/05 (influenza A virus); assay: cell-based or functional assay
[30] = biological target: HA of H6N1 A/Eurasian Wigeon/MPG1884/09 (influenza A virus); assay: cell-based or functional assay
[31] = biological target: HA of H6N1 A/Taiwan/2/2013 (influenza A virus); assay: cell-based or functional assay
[32] = biological target: HA of H6N8 A/Eurasian Wigeon/MPD411/07 (influenza A virus); assay: cell-based or functional assay
[33] = biological target: HA of H11N9 A/Northern Pintail/MPC2085/07 (influenza A virus); assay: cell-based or functional assay
[34] = biological target: HA of H9N2 A/Ck/HK/SSP176/09 (influenza A virus); assay: cell-based or functional assay
[35] = biological target: HA of H9N2 A/Great Cormorant/MP2934/04 (influenza A virus); assay: cell-based or functional assay
[36] = biological target: HA of H9N2 A/HK/466419/09 (influenza A virus); assay: cell-based or functional assay
[37] = biological target: HA of H8N4 A/Eurasian Wigeon/MPH571/08 (influenza A virus); assay: cell-based or functional assay
[38] = biological target: HA of H8N2 A/Env/MPJ1258/09 (influenza A virus); assay: cell-based or functional assay
[39] = biological target: HA of H12N5 A/Env/MPK659/09 (influenza A virus); assay: cell-based or functional assay
[40] = biological target: HA of H3N2 A/Fukui/45/04 (influenza A virus); assay: cell-based or functional assay
[41] = biological target: HA of H3N2 A/Aichi/2/68 (influenza A virus, UniProt P03437 17-566); assay: cell-based or functional assay
[42] = biological target: HA of H3N2 A/Hiroshima/52/05 (influenza A virus); assay: cell-based or functional assay
[43] = biological target: HA of H3N2 A/Johannesburg/33/94 (influenza A virus); assay: cell-based or functional assay
[44] = biological target: HA of H3N2 A/Perth/16/09 (influenza A virus); assay: cell-based or functional assay
[45] = biological target: HA of H3N2 A/Victoria/210/09 (influenza A virus); assay: cell-based or functional assay
[46] = biological target: HA of H3N2 A/HK/1174/99 (influenza A virus); assay: cell-based or functional assay
[47] = biological target: HA of H4N1 A/Northern Pintail/MPB1368/06 (influenza A virus); assay: cell-based or functional assay
[48] = biological target: HA of H4N6 A/Great Cormorant/MPB1683/06 (influenza A virus); assay: cell-based or functional assay
[49] = biological target: HA of H14N5 A/Mallard/Astrakhan/263/1982 (influenza A virus); assay: cell-based or functional assay
[50] = biological target: HA of H7N7 A/Northern Shoveler/MPF518/08 (influenza A virus); assay: cell-based or functional assay
[51] = biological target: T2, HA of H7N7 A/Netherlands/219/2003; assay: AlphaLISA competition vs CR9114

B1: SD1036 (VHH)
VHH: EVQLVESGGGLVQAGGSLKLSCAASGRTYAMGWFRQAPGKEREFVAHINALGTRTYYSDSVKGRFTISRDNAKNTEYLEMNNLKPEDTAVYYCTAQGQWRAAPVAVAAEYEFWGQGTQVTVSS
notes: llama sdAb
Kd [1]: 2 nM
VNA titer [2]: 18.3 nM
VNA titer [3]: 65.9 nM
VNA titer [4]: 101 nM
VNA titer [5]: 33 nM
VNA titer [6]: 83.9 nM
VNA titer [7]: 28.9 nM
VNA titer [8]: 19.9 nM
VNA titer [9]: > 1000 nM
VNA titer [10]: > 1000 nM
VNA titer [11]: 73.2 nM
VNA titer [12]: 115 nM
VNA titer [13]: 28.9 nM
VNA titer [14]: > 1000 nM
VNA titer [15]: > 1000 nM
VNA titer [16]: 40.4 nM
VNA titer [17]: 8.8 nM
VNA titer [18]: 22.2 nM
VNA titer [19]: > 1000 nM
VNA titer [20]: > 1000 nM
VNA titer [21]: > 1000 nM
VNA titer [22]: > 1000 nM
VNA titer [23]: > 1000 nM
VNA titer [24]: > 1000 nM
VNA titer [25]: > 1000 nM
VNA titer [26]: > 1000 nM
VNA titer [27]: > 1000 nM
VNA titer [28]: > 1000 nM
VNA titer [29]: > 1000 nM
VNA titer [30]: > 1000 nM
VNA titer [31]: > 1000 nM
VNA titer [32]: > 1000 nM
VNA titer [33]: > 1000 nM
VNA titer [34]: > 1000 nM
VNA titer [35]: 677 nM
VNA titer [36]: > 1000 nM
VNA titer [37]: > 1000 nM
VNA titer [38]: > 1000 nM
VNA titer [39]: > 1000 nM
VNA titer [40]: > 1000 nM
VNA titer [41]: 6.5 nM
VNA titer [42]: > 1000 nM
VNA titer [43]: 601 nM
VNA titer [44]: 76.4 nM
VNA titer [45]: 540 nM
VNA titer [46]: > 1000 nM
VNA titer [47]: 80.7 nM
VNA titer [48]: 44.5 nM
VNA titer [49]: 16.2 nM
VNA titer [50]: 44.7 nM
pIC50 [51]: 9.3

From patent publication US20190359693A1 (Janssen / Centocor, published 2019)
